Source: paper PMC6511404
Where two headings read alike, the source gives them in different places.

Assays:
[1] = molecular target: E. coli enolase, detagged (His tag removed by thrombin) (E. coli); assay: crystal structure
[2] = molecular target: E. coli enolase, detagged (His tag removed by thrombin) (E. coli); assay: crystal structure; remark: listed apart in the source

E. coli enolase, detagged (His tag removed by thrombin) (enzyme), sequence (A1AEW7 2-432): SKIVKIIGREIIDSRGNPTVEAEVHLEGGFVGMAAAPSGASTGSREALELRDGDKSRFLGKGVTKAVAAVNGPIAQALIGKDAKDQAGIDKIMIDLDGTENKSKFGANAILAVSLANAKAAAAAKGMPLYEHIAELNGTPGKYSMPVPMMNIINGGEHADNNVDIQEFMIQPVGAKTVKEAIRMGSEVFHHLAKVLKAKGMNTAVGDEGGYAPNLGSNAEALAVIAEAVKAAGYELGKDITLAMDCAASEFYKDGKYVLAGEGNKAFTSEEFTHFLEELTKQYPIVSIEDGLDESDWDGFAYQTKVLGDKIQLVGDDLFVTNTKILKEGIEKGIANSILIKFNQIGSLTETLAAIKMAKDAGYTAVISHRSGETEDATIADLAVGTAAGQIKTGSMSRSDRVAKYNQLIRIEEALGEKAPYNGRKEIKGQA

## E. coli enolase, detagged (His tag removed by thrombin) (enzyme)
[1]
  stoichiometry N: 2
[2]
  stoichiometry N: 6
